Results from the supplement of paper PMC5998384.

Key:
HeLa Kyoto [1] = experiment: thermal stability score vs G1/S (z-score of summed log2 fold changes over temperatures); higher = more thermally stable than in G1/S
HeLa Kyoto [2] = experiment: melting temperature (median over replicates), in situ; higher = more thermally stable
HeLa Kyoto [3] = experiment: solubility change mitosis vs G1/S (difference of NP-40 vs SDS log2 ratios) (log2 ratio difference); higher = more soluble in mitosis
HeLa Kyoto [4] = experiment: solubility in G1/S (NP-40 vs SDS abundance) (log2 ratio); higher = more soluble; details: cell cycle stage: G1/S
[5] = cell cycle stage: early G1 (4.5 h after nocodazole release)
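For melting temperature (median over replicates), in situ in this document: HeLa Kyoto cells synchronized by double thymidine or nocodazole block, proteins quantified by TMT10plex mass spectrometry, three independent biological replicates.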
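For solubility change mitosis vs G1/S (difference of NP-40 vs SDS log2 ratios) in this document: synchronized HeLa Kyoto cells (double thymidine block for G1/S, nocodazole release for mitosis), protein amounts in NP-40 versus SDS lysates quantified by mass spectrometry, three biological replicates.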
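For solubility in G1/S (NP-40 vs SDS abundance) in this document: HeLa Kyoto cells arrested at G1/S by double thymidine block, proteins quantified by TMT10plex mass spectrometry in mild NP-40 versus SDS extracts, three biological replicates.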
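For thermal stability score vs G1/S (z-score of summed log2 fold changes over temperatures) in this document: synchronized HeLa Kyoto cells, proteins quantified by TMT10plex mass spectrometry, three biological replicates, mitosis taken 0.5 h after nocodazole release, G1/S directly after double thymidine block.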

Row | Sequence | thermal stability score (HeLa Kyoto [1]; [5]) | thermal stability score (HeLa Kyoto [1]; cell cycle stage: mitosis) | melting temperature (HeLa Kyoto [2]; cell cycle stage: G1/S) | melting temperature (HeLa Kyoto [2]; cell cycle stage: mitosis) | solubility change mitosis (log2) (HeLa Kyoto [3]) | solubility in G1/S (log2) (HeLa Kyoto [4])
1 | MADLSLLQEDLQEDADGFGVDDYSSESDVIIIPSALDFVSQDEMLTPLGRLDKYAASENIFNRQMVARSLLDTLREVCDDERDCIAVLERISRLADDSEPTVRAELMEQVPHIALFCQENRPSIPYAFSKFLLPIVVRYLADQNNQVRKTSQAALLALLEQELIERFDVETKVCPVLIELTAPDSNDDVKTEAVAIMCKMAPMVGKDITERLILPRFCEMCCDCRMFHVRKVCAANFGDICSVVGQQATEEMLLPRFFQLCSDNVWGVRKACAECFMAVSCATCQEIRRTKLSALFINLISDPSRWVRQAAFQSLGPFISTFANPSSSGQYFKEESKSSEEMSVENKNRTRDQEAPEDVQVRPEDTPSDLSVSNSSVILENTMEDHAAEASGKPLGEISVPLDSSLLCTLSSESHQEAASNENDKKPGNYKSMLRPEVGTTSQDSALLDQELYNSFHFWRTPLPEIDLDIELEQNSGGKPSPEGPEEESEGPVPSSPNITMATRKELEEMIENLEPHIDDPDVKAQVEVLSAALRASSLDAHEETISIEKRSDLQDELDINELPNCKINQEDSVPLISDAVENMDSTLHYIHSDSDLSNNSSFSPDEERRTKVQDVVPQALLDQYLSMTDPSRAQTVDTEIAKHCAYSLPGVALTLGRQNWHCLRETYETLASDMQWKVRRTLAFSIHELAVILGDQLTAADLVPIFNGFLKDLDEVRIGVLKHLHDFLKLLHIDKRREYLYQLQEFLVTDNSRNWRFRAELAEQLILLLELYSPRDVYDYLRPIALNLCADKVSSVRWISYKLVSEMVKKLHAATPPTFGVDLINELVENFGRCPKWSGRQAFVFVCQTVIEDDCLPMDQFAVHLMPHLLTLANDRVPNVRVLLAKTLRQTLLEKDYFLASASCHQEAVEQTIMALQMDRDSDVKYFASIHPASTKISEDAMSTASSTY [PPP4R1] | -0.471 | -0.62 | 51.6 °C | 50.8 °C | -0.155 | -0.0857
2 | MADPDVLTEVPAALKRLAKYVIRGFYGIEHALALDILIRNSCVKEEDMLELLKFDRKQLRSVLNNLKGDKFIKCRMRVETAADGKTTRHNYYFINYRTLVNVVKYKLDHMRRRIETDERDSTNRASFKCPVCSSTFTDLEANQLFDPMTGTFRCTFCHTEVEEDESAMPKKDARTLLARFNEQIEPIYALLRETEDVNLAYEILEPEPTEIPALKQSKDHAATTAGAASLAGGHHREAWATKGPSYEDLYTQNVVINMDDQEDLHRASLEGKSAKERPIWLRESTVQGAYGSEDMKEGGIDMDAFQEREEGHAGPDDNEEVMRALLIHEKKTSSAMAGSVGAAAPVTAANGSDSESETSESDDDSPPRPAAVAVHKREEDEEEDDEFEEVADDPIVMVAGRPFSYSEVSQRPELVAQMTPEEKEAYIAMGQRMFEDLFE [GTF2E1] | 2.94 | 5.05 | 48.4 °C | 49.4 °C | -0.0795 | -0.111
3 | MADQPKPISPLKNLLAGGFGGVCLVFVGHPLDTVKVRLQTQPPSLPGQPPMYSGTFDCFRKTLFREGITGLYRGMAAPIIGVTPMFAVCFFGFGLGKKLQQKHPEDVLSYPQLFAAGMLSGVFTTGIMTPGERIKCLLQIQASSGESKYTGTLDCAKKLYQEFGIRGIYKGTVLTLMRDVPASGMYFMTYEWLKNIFTPEGKRVSELSAPRILVAGGIAGIFNWAVAIPPDVLKSRFQTAPPGKYPNGFRDVLRELIRDEGVTSLYKGFNAVMIRAFPANAACFLGFEVAMKFLNWATPNL [SLC25A20] | -1.89 | -0.401 | 58 °C | 56.7 °C | -0.108 | -0.0167
4 | MADRDSGSEQGGAALGSGGSLGHPGSGSGSGGGGGGGGGGGGSGGGGGGAPGGLQHETQELASKRVDIQNKRFYLDVKQNAKGRFLKIAEVGAGGNKSRLTLSMSVAVEFRDYLGDFIEHYAQLGPSQPPDLAQAQDEPRRALKSEFLVRENRKYYMDLKENQRGRFLRIRQTVNRGPGLGSTQGQTIALPAQGLIEFRDALAKLIDDYGVEEEPAELPEGTSLTVDNKRFFFDVGSNKYGVFMRVSEVKPTYRNSITVPYKVWAKFGHTFCKYSEEMKKIQEKQREKRAACEQLHQQQQQQQEETAAATLLLQGEEEGEED [PURA] | -2.25 | -4.83 | 58 °C | 56.5 °C | 0.112 | 0.415
5 | MADREGGCAAGRGRELEPELEPGPGPGSALEPGEEFEIVDRSQLPGPGDLRSATRPRAAEGWSAPILTLARRATGNLSASCGSALRAAAGLGGGDSGDGTARAASKCQMMEERANLMHMMKLSIKVLLQSALSLGRSLDADHAPLQQFFVVMEHCLKHGLKVKKSFIGQNKSFFGPLELVEKLCPEASDIATSVRNLPELKTAVGRGRAWLYLALMQKKLADYLKVLIDNKHLLSEFYEPEALMMEEEGMVIVGLLVGLNVLDANLCLKGEDLDSQVGVIDFSLYLKDVQDLDGGKEHERITDVLDQKNYVEELNRHLSCTVGDLQTKIDGLEKTNSKLQEELSAATDRICSLQEEQQQLREQNELIRERSEKSVEITKQDTKVELETYKQTRQGLDEMYSDVWKQLKEEKKVRLELEKELELQIGMKTEMEIAMKLLEKDTHEKQDTLVALRQQLEEVKAINLQMFHKAQNAESSLQQKNEAITSFEGKTNQVMSSMKQMEERLQHSERARQGAEERSHKLQQELGGRIGALQLQLSQLHEQCSSLEKELKSEKEQRQALQRELQHEKDTSSLLRMELQQVEGLKKELRELQDEKAELQKICEEQEQALQEMGLHLSQSKLKMEDIKEVNQALKGHAWLKDDEATHCRQCEKEFSISRRKHHCRNCGHIFCNTCSSNELALPSYPKPVRVCDSCHTLLLQRCSSTAS [RUFY1] | 0.538 | 1.01 | 49.5 °C | 49.8 °C | -0.0933 | 0.163
6 | MADSELQLVEQRIRSFPDFPTPGVVFRDISPVLKDPASFRAAIGLLARHLKATHGGRIDYIAGLDSRGFLFGPSLAQELGLGCVLIRKRGKLPGPTLWASYSLEYGKAELEIQKDALEPGQRVVVVDDLLATGGTMNAACELLGRLQAEVLECVSLVELTSLKGREKLAPVPFFSLLQYE [APRT] | 3.79 | 2.38 | 57.1 °C | 55.8 °C | -0.0341 | 0.361
7 | MAEAALLLLPEAAAERDAREKLALWDRRPDTTAPLTDRQTDSVLELKAAAENLPVPAELPIEDLCSLTSQSLPIELTSVVPESTEDILLKGFTSLGMEEERIETAQQFFSWFAKLQTQMDQDEGTKYRQMRDYLSGFQEQCDAILNDVNSALQHLESLQKQYLFVSNKTGTLHEACEQLLKEQSELVDLAENIQQKLSYFNELETINTKLNSPTLSVNSDGFIPMLAKLDDCITYISSHPNFKDYPIYLLKFKQCLSKALHLMKTYTVNTLQTLTSQLLKRDPSSVPNADNAFTLFYVKFRAAAPKVRTLIEQIELRSEKIPEYQQLLNDIHQCYLDQRELLLGPSIACTVAELTSQNNRDHCALVRSGCAFMVHVCQDEHQLYNEFFTKPTSKLDELLEKLCVSLYDVFRPLIIHVIHLETLSELCGILKNEVLEDHVQNNAEQLGAFAAGVKQMLEDVQERLVYRTHIYIQTDITGYKPAPGDLAYPDKLVMMEQIAQSLKDEQKKVPSEASFSDVHLEEGESNSLTKSGSTESLNPRPQTTISPADLHGMWYPTVRRTLVCLSKLYRCIDRAVFQGLSQEALSACIQSLLGASESISKNKTQIDGQLFLIKHLLILREQIAPFHTEFTIKEISLDLKKTRDAAFKILNPMTVPRFFRLNSNNALIEFLLEGTPEIREHYLDSKKDVDRHLKSACEQFIQQQTKLFVEQLEEFMTKVSALKTMASQGGPKYTLSQQPWAQPAKVNDLAATAYKTIKTKLPVTLRSMSLYLSNKDTEFILFKPVRNNIQQVFQKFHALLKEEFSPEDIQIIACPSMEQLSLLLLVSK [COG3] | 0.629 | 1.07 | 50.9 °C | 49.7 °C | -0.0733 | 0.235
8 | MAEEQGRERDSVPKPSVLFLHPDLGVGGAERLVLDAALALQARGCSVKIWTAHYDPGHCFAESRELPVRCAGDWLPRGLGWGGRGAAVCAYVRMVFLALYVLFLADEEFDVVVCDQVSACIPVFRLARRRKKILFYCHFPDLLLTKRDSFLKRLYRAPIDWIEEYTTGMADCILVNSQFTAAVFKETFKSLSHIDPDVLYPSLNVTSFDSVVPEKLDDLVPKGKKFLLLSINRYERKKNLTLALEALVQLRGRLTSQDWERVHLIVAGGYDERVLENVEHYQELKKMVQQSDLGQYVTFLRSFSDKQKISLLHSCTCVLYTPSNEHFGIVPLEAMYMQCPVIAVNSGGPLESIDHSVTGFLCEPDPVHFSEAIEKFIREPSLKATMGLAGRARVKEKFSPEAFTEQLYRYVTKLLV [ALG2] | 0.227 | 0.342 | 51 °C | 51.3 °C | -0.229 | -0.0813
